Experiment [1] concerns the target deglycosylated human CD25 (SinoBiological) (Homo sapiens, UniProt P01589, deglycosylated with N-glycosidase F). The experiment is described as follows: crystal structure.
The target of experiment [2] is cynomolgus CD25 on HSC-F cells (cynomolgus CD25+) (Macaca fascicularis, UniProt H6WS54). Put plainly: flow cytometry on cells. For orientation: A flow cytometer gives signals particle by particle.
Experiment [3] concerns the target human CD25 on SU-DHL1 tumor cells (human CD25+) (Homo sapiens, UniProt P01589). Put plainly: flow cytometry on cells.

Sequence of human CD25 on SU-DHL1 tumor cells (human CD25+) (P01589 22-272): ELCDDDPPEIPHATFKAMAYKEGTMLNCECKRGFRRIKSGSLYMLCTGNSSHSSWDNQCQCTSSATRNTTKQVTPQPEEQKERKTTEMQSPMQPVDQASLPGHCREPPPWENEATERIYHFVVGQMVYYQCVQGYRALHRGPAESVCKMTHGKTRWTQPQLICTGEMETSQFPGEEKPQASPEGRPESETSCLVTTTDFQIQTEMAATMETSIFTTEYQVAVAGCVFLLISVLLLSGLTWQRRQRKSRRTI
Sequence of deglycosylated human CD25 (SinoBiological) (P01589 22-213): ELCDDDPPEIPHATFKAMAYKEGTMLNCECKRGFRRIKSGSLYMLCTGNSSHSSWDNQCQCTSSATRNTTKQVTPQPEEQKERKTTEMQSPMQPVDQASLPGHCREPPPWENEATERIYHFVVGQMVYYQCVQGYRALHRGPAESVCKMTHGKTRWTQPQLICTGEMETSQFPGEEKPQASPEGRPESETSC

B1: Fab fragment of RG6292 (Fab, V domains shown)
VH: QVQLVQSGAEVKKPGSSVKVSCKASGGTFSSLAISWVRQAPGQGLEWMGGIIPIFGTANYAQKFQGRVTITADESTSTAYMELSSLRSEDTAVYYCARGGSVSGTLVDFDIWGQGTMVTVSS
VL: not shown
Regarding B1, the binding result in experiment [1] was “binds”.

B2: RG6292, a-fucosylated human IgG1 mAb (anti-human CD25^NIB) (antibody, V domains shown)
VH: QVQLVQSGAEVKKPGSSVKVSCKASGGTFSSLAISWVRQAPGQGLEWMGGIIPIFGTANYAQKFQGRVTITADESTSTAYMELSSLRSEDTAVYYCARGGSVSGTLVDFDIWGQGTMVTVSS
VL: not shown
Consider B2, for which the binding result in experiment [2] was “binds”.

B3: RG6292 (FF), the fully fucosylated version of RG6292 (antibody, V domains shown)
VH: QVQLVQSGAEVKKPGSSVKVSCKASGGTFSSLAISWVRQAPGQGLEWMGGIIPIFGTANYAQKFQGRVTITADESTSTAYMELSSLRSEDTAVYYCARGGSVSGTLVDFDIWGQGTMVTVSS
VL: not shown
For B3, in experiment [3], the binding result is “binds”.

Source of the values: article PMC7116816 (Nature cancer, 2020).
